Blank lines part the entries; values can stand above or below the binder they belong to.
How the values were obtained:
[1] = target: 2:2 IFNγ–IFNγR1 intermediate complex (wild type), formed on the SPR chip (UniProt P15260); assay: SPR
[2] = target: T1, IFNγR1, wild type, recombinant soluble receptor captured on the SPR chip (UniProt P15260 18-245); assay: SPR
T1 sequence (looked up): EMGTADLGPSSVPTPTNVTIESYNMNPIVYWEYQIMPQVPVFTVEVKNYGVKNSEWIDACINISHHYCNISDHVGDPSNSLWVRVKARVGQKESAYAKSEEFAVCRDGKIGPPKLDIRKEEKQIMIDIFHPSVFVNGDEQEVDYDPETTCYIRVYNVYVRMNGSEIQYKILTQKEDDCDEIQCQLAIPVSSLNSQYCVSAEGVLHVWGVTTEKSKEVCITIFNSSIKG

- Kd [1]: 5 µM
B1: IFNγR2, wild type, recombinant soluble receptor (receptor)
chain: SQLPAPQHPKIRLYNAEQVLSWEPVALSNSTRPVVYQVQFKYTDSKWFTADIMSIGVNCTQITATECDFTAASPSAGFPMDFNVTLRLRAELGALHSAWVTMPWFQHYRNVTVGPPENIEVTPGEGSLIIRFSSPFDIADTSTAFFCYYVHYWEKGGIQQVKGPFRSNSISLDNLKPSRVYCLQVQAQLLWNKSNIFRVGHLSNISCYETMADASTELQQ

- binding result [2]: binds
B2: IFNγ(K74A/E75Y/N83R) triple mutant (ligand)
chain: QDPYVKEAENLKKYFNAGHSDVADNGTLFLGILKNWKEESDRKIMQSQIVSFYFKLFKNFKDDQSIQKSVETIAYDMNVKFFRSNKKKRDDFEKLTNYSVTDLNVQRKAIHELIQVMAELSPAAKTGKRKRSQ

Source: PMC6561087 (Nature, 2019)
